Key:
Grb2 SH2 = Grb2 SH2 (UniProt P62993); assay: SH2 binding enrichment of the phosphorylated peptide, bacterial display (enrichment ratio); higher = better substrate or ligand; peptides without Tyr show the background
c-Src SH2 = assay: as above
SHP2-C SH2 = assay: as above
FGFR3 = FGFR3 (UniProt P22607); assay: phosphorylation enrichment, bacterial display (enrichment ratio); higher = better substrate or ligand; peptides without Tyr show the background
c-Abl (mouse) = assay: as above
Fes = Fes (UniProt P07332); assay: as above
Fyn = Fyn (UniProt P06241); assay: as above
Hck = Hck (UniProt P08631); assay: as above
Fer (mouse) = assay: as above
EPHB2 = EPHB2 (UniProt P29323); assay: as above
c-Src = assay: as above
AncSZ = assay: as above
MERTK = MERTK (UniProt Q12866); assay: as above
FGFR1 = FGFR1 (UniProt P11362); assay: as above
Jak2 = Jak2 (UniProt O60674); assay: as above
EPHB1 = EPHB1 (UniProt P54762); assay: as above
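For SH2 binding enrichment of the phosphorylated peptide, bacterial display in this document: peptide library displayed on the E. coli surface as eCPX fusions, selected cells deep-sequenced, score is each peptide's frequency after selection divided by its frequency in the input.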
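For phosphorylation enrichment, bacterial display in this document: 11-residue human phosphosite peptides and single-mutation variants displayed on the E. coli surface, counted by deep sequencing, each peptide's frequency after selection divided by its frequency in the unselected input library; frequency after pTyr selection over input frequency; kinase dosed for 20-30% of maximal phosphorylation in three min.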

MERTK, sequence (Q12866 whole entry, looked up): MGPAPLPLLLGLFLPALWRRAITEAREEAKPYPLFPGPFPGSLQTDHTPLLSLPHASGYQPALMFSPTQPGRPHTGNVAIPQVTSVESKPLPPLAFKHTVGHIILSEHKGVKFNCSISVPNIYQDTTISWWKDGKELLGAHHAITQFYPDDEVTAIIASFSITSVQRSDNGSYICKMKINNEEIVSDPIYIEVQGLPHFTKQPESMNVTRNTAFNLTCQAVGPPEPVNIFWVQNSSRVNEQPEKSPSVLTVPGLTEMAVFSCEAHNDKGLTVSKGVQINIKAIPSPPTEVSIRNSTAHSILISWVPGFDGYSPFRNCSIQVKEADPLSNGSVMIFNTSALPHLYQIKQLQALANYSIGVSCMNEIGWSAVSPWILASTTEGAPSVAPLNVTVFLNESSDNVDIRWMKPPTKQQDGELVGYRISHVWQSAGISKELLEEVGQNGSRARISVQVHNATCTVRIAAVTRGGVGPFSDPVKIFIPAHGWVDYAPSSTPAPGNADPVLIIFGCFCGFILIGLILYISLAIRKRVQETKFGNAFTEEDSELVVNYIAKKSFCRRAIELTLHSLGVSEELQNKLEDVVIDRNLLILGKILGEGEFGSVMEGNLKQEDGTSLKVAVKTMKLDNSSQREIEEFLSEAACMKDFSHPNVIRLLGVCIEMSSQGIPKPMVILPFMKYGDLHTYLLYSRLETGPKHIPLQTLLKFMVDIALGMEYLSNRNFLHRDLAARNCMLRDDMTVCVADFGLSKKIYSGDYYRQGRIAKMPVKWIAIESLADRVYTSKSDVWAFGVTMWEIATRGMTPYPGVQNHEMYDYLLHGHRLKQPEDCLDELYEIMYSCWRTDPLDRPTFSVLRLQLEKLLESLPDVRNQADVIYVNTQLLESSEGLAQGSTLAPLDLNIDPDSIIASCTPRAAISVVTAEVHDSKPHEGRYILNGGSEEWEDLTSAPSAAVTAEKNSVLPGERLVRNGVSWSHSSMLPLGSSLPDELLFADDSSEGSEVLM
Hck, sequence (P08631 whole entry, looked up): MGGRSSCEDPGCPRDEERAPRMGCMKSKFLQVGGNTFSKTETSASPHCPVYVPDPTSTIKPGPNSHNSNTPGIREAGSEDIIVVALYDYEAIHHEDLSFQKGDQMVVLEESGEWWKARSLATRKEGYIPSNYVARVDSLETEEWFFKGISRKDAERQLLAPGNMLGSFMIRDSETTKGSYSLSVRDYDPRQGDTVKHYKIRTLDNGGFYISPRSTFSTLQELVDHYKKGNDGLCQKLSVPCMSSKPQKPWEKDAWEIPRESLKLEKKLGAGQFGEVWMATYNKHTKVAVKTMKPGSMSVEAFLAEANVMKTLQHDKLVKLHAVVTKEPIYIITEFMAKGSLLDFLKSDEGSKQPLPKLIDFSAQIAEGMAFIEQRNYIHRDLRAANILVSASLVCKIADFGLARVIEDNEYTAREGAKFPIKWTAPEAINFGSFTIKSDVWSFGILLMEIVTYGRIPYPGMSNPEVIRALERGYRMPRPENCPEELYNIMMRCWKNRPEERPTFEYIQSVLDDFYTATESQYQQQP
Jak2, sequence (O60674 whole entry, looked up): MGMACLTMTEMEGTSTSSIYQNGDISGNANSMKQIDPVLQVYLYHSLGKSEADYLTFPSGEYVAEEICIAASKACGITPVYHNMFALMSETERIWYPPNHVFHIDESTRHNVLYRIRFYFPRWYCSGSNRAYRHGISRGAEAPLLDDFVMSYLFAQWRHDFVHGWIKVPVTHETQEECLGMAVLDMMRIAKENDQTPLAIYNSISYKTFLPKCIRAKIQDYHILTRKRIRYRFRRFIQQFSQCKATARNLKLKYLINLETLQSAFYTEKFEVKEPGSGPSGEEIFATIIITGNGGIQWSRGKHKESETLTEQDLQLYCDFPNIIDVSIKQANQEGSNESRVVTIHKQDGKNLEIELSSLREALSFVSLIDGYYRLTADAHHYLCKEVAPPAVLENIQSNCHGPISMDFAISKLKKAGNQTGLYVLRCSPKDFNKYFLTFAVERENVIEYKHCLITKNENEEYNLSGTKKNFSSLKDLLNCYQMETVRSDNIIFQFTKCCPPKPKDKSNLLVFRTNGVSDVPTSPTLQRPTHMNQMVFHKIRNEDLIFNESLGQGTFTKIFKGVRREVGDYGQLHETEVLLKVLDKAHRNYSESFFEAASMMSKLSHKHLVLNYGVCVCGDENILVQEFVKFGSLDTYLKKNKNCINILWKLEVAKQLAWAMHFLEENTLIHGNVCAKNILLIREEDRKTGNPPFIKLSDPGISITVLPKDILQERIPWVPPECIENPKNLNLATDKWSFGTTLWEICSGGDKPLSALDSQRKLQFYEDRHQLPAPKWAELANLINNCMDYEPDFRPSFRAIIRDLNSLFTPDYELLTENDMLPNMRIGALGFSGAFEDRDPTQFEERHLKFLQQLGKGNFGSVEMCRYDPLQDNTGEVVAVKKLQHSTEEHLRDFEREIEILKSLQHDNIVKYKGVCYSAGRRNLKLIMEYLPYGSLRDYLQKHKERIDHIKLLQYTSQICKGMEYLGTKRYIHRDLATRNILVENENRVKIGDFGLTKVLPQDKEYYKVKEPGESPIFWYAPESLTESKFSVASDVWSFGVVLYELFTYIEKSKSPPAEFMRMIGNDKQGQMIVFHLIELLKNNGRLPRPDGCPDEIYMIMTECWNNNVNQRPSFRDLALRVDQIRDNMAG
Fyn, sequence (P06241 whole entry, looked up): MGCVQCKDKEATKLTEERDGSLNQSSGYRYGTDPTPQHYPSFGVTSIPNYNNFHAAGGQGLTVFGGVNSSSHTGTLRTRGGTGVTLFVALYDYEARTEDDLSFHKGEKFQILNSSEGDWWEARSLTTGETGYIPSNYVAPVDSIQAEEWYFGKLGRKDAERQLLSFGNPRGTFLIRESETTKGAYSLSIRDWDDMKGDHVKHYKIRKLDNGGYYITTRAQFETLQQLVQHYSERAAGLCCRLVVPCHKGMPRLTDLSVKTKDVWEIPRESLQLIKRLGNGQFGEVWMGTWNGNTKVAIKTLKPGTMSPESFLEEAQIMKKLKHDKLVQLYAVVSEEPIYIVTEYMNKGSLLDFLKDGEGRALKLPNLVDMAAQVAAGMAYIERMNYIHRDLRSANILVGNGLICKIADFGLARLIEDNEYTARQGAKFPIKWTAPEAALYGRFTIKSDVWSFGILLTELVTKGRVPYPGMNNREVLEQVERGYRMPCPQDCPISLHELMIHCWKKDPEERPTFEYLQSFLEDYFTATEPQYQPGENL
FGFR3, sequence (P22607 whole entry, looked up): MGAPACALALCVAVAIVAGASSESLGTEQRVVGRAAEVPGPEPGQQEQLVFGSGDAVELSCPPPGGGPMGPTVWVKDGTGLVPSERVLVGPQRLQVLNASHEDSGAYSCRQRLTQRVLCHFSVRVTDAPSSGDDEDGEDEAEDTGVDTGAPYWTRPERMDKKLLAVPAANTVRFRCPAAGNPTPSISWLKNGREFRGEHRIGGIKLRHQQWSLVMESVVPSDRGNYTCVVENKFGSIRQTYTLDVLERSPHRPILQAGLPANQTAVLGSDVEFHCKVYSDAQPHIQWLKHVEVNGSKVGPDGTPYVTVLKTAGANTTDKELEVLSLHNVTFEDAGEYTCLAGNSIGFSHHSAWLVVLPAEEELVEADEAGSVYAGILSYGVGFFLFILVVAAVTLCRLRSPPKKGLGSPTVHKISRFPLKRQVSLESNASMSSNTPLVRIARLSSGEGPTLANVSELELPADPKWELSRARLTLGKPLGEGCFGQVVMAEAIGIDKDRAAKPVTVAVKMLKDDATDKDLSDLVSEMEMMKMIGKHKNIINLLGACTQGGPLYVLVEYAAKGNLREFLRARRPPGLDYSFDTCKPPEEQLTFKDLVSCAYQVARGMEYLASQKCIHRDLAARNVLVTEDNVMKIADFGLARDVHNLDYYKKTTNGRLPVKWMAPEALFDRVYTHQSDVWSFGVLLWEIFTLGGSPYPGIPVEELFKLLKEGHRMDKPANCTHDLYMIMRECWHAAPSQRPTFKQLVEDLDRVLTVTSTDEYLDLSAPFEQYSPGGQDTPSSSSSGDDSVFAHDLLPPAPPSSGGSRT
Fes, sequence (P07332 whole entry, looked up): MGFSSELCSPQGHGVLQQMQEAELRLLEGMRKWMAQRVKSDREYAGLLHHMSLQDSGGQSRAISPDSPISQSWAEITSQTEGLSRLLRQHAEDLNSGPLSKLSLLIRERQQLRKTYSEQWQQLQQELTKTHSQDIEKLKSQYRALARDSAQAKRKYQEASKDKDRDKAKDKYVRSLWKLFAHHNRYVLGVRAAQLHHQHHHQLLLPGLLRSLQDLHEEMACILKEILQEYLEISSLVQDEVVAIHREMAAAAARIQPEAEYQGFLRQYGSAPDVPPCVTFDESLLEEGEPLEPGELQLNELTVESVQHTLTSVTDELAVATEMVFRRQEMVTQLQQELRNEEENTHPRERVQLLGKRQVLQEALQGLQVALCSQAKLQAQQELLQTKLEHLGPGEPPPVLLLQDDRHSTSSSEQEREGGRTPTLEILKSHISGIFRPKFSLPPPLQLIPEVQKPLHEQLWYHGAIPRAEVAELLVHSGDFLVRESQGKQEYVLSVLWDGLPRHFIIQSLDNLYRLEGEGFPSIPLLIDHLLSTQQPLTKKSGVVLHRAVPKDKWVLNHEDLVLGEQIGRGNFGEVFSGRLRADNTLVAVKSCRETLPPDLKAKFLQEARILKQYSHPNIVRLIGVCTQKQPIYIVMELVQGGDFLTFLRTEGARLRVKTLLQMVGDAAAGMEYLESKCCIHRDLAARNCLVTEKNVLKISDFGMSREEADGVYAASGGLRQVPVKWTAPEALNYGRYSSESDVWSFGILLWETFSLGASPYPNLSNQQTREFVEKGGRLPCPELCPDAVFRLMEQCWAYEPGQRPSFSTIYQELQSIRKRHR
Grb2 SH2, sequence (P62993 whole entry, looked up): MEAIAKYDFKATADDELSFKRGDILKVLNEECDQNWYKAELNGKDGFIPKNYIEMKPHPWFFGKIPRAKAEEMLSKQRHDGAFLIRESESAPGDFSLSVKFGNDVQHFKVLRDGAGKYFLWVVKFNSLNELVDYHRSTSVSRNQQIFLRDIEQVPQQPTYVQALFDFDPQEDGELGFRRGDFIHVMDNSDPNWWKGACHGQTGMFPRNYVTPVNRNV

| Sequence | SH2 binding enrichment (Grb2 SH2) | SH2 binding enrichment (c-Src SH2) | SH2 binding enrichment (SHP2-C SH2) | phosphorylation enrichment (FGFR3) | phosphorylation enrichment (c-Abl (mouse)) | phosphorylation enrichment (Fes) | phosphorylation enrichment (Fyn) | phosphorylation enrichment (Hck) | phosphorylation enrichment (Fer (mouse)) | phosphorylation enrichment (EPHB2) | phosphorylation enrichment (c-Src) | phosphorylation enrichment (AncSZ) | phosphorylation enrichment (MERTK) | phosphorylation enrichment (FGFR1) | phosphorylation enrichment (Jak2) | phosphorylation enrichment (EPHB1) |
| --- | --- | --- | --- | --- | --- | --- | --- | --- | --- | --- | --- | --- | --- | --- | --- | --- |
| GKAFIYASHIV [ZNF573_Y229] | 0.76 | 0.65 | 0.697 | 0.602 | 0.996 | 1 | 0.666 | 0.604 | 1.16 | 0.42 | 1.21 | 0.802 | 0.408 | 0.427 | 0.869 | 0.557 |
| RIILLYIFLKN [STXBP1_Y411] | 1.96 | 1.11 | 1.53 | 0.489 | 0.827 | 1.01 | 0.212 | 0.42 | 0.45 | 0.332 | 0.62 | 0.83 | 0.581 | 0.466 | 0.994 | 0.298 |
| CEHRGYLFLAI [TEK_Y897_YF] | 1.49 | 0.767 | 1.19 | 0.628 | 0.813 | 0.906 | 0.443 | 0.45 | 0.508 | 0.69 | 0.496 | 0.951 | 0.37 | 0.545 | 1.01 | 0.502 |
| SRGRQYQELPR [KCNH2_Y1009] | 0.925 | 1.29 | 0.565 | 0.423 | 0.463 | 0.462 | 0.317 | 0.527 | 0.349 | 0.347 | 0.441 | 0.512 | 0.36 | 0.4 | 0.455 | 0.316 |
| SVTCTYSPAFN [TP53_Y126_L130F] | 0.664 | 0.463 | 0.646 | 0.897 | 1 | 1.51 | 0.518 | 0.592 | 0.553 | 0.59 | 0.66 | 1.35 | 0.418 | 0.49 | 1.31 | 0.8 |
| VLALWYFFLTH [ZDHHC23_Y127_YF] | 1.28 | 1.06 | 1.16 | 1.76 | 1.01 | 1.76 | 0.614 | 0.682 | 0.644 | 0.676 | 0.602 | 1.42 | 0.882 | 2.08 | 2.27 | 0.963 |
| LQLLGHRPVFS [CHST6_Y358_Y358H_YF] | 0.912 | 0.544 | 0.923 | 0.785 | 0.919 | 1.33 | 0.786 | 0.957 | 0.817 | 0.783 | 0.579 | 0.901 | 0.602 | 0.657 | 1.03 | 0.847 |
| VEDQFYRVDCF [FHL1_Y208_C209R_YF] | 0.875 | 0.515 | 0.601 | 0.831 | 0.863 | 1.34 | 0.693 | 0.551 | 0.559 | 0.587 | 1.1 | 1.16 | 0.557 | 0.522 | 1.24 | 0.692 |
| CSRHFYQLTKL [AR_Y858_R856H] | 1.04 | 0.97 | 0.821 | 0.662 | 0.763 | 1.17 | 0.444 | 0.464 | 0.615 | 0.576 | 0.422 | 1.06 | 0.432 | 0.705 | 0.969 | 0.501 |
| YMLYQYLKQIE [RPAP3_Y569_D564Y] | 1.94 | 1.44 | 2.83 | 4.47 | 1.6 | 1.11 | 1.56 | 5.99 | 6.78 | 10.5 | 2.25 | 1.53 | 8.62 | 6.02 | 1.85 | 13.3 |
| RSLLQYGGSAN [ANK1_Y624] | 0.749 | 0.482 | 0.716 | 0.772 | 1.01 | 0.857 | 0.537 | 0.813 | 0.8 | 0.717 | 0.459 | 0.964 | 0.439 | 0.574 | 0.626 | 0.709 |
| RIGRKCKKVRF [F8_Y442_Y442C] | 0.638 | 0.433 | 0.428 | 0.572 | 0.524 | 0.595 | 0.55 | 0.52 | 0.363 | 0.556 | 0.794 | 0.608 | 0.549 | 1.67 | 0.654 | 0.567 |
| PQIVKYRPDCI [LDHB_Y128_S129R] | 1.26 | 0.671 | 0.817 | 0.537 | 0.069 | 0.839 | 0.699 | 0.238 | 0.12 | 0.131 | 0.663 | 0.89 | 0.133 | 0.302 | 0.391 | 0.627 |
| PARLEYYENEK [IRS1_Y46] | 3.84 | 18.6 | 1.35 | 0.882 | 0.725 | 1.26 | 0.732 | 0.48 | 0.25 | 0.723 | 0.711 | 1.26 | 0.547 | 0.533 | 1.17 | 0.613 |
| IKELTYQMEED [MYH7_Y1852_T1854M] | 0.825 | 0.507 | 0.605 | 0.768 | 0.667 | 1.18 | 0.889 | 0.646 | 0.495 | 0.628 | 1.21 | 1.19 | 0.432 | 0.591 | 1.01 | 0.634 |
| EKHGQYLIGHG [EPHB4_Y581_D576E] | 0.792 | 0.381 | 0.664 | 0.5 | 0.543 | 0.719 | 0.42 | 0.475 | 0.381 | 0.408 | 0.396 | 0.618 | 0.46 | 0.503 | 0.555 | 0.413 |
| GRFCGYKSKHG [EPHA3_Y570] | 1.32 | 1.43 | 1.49 | 0.638 | 0.587 | 0.664 | 0.321 | 0.377 | 0.426 | 0.368 | 0.363 | 0.469 | 0.376 | 0.374 | 0.726 | 0.506 |

| Sequence | SH2 binding enrichment (Grb2 SH2) | SH2 binding enrichment (c-Src SH2) | SH2 binding enrichment (SHP2-C SH2) | phosphorylation enrichment (FGFR3) | phosphorylation enrichment (c-Abl (mouse)) | phosphorylation enrichment (Fes) | phosphorylation enrichment (Fyn) | phosphorylation enrichment (Hck) | phosphorylation enrichment (Fer (mouse)) | phosphorylation enrichment (EPHB2) | phosphorylation enrichment (c-Src) | phosphorylation enrichment (AncSZ) | phosphorylation enrichment (MERTK) | phosphorylation enrichment (FGFR1) | phosphorylation enrichment (Jak2) | phosphorylation enrichment (EPHB1) |
| --- | --- | --- | --- | --- | --- | --- | --- | --- | --- | --- | --- | --- | --- | --- | --- | --- |
| QLRPGYIPIPV [BAG3_Y93] | 0.848 | 0.493 | 0.585 | 1.09 | 0.796 | 0.915 | 0.736 | 0.639 | 0.645 | 0.592 | 0.734 | 0.953 | 0.772 | 0.735 | 1.08 | 0.774 |
| HEHVGYTTLNR [CHN1_Y148_Y143H] | 0.88 | 3.47 | 61.4 | 0.744 | 0.936 | 0.667 | 0.489 | 0.57 | 0.351 | 0.429 | 0.618 | 0.63 | 0.44 | 0.573 | 0.669 | 0.498 |
| YCRHNYGVGES [HLA-DRB1_Y112_V115G] | 0.936 | 0.823 | 0.838 | 0.534 | 0.602 | 0.913 | 0.487 | 0.383 | 0.361 | 0.473 | 0.552 | 0.686 | 0.582 | 0.549 | 0.65 | 0.492 |
| PEVRRHVLPLN [RPE65_Y368_Y368H] | 0.834 | 0.663 | 0.391 | 1.03 | 1.73 | 1.61 | 0.587 | 0.894 | 0.843 | 0.886 | 0.661 | 1.35 | 0.669 | 0.707 | 1.57 | 0.849 |
| VNKIYYPDFIV [LIG3_Y768] | 1.07 | 0.675 | 0.697 | 7.46 | 0.596 | 0.918 | 1.09 | 1.25 | 0.494 | 0.516 | 1.48 | 1.23 | 2.72 | 8.82 | 0.666 | 0.621 |
| QFNPEYVQQAS [LRRC7_Y1058_H1054Y_YF] | 0.871 | 0.458 | 0.642 | 0.761 | 0.904 | 1.46 | 0.687 | 0.792 | 0.648 | 0.778 | 0.518 | 1.79 | 0.638 | 0.741 | 1.3 | 1.02 |
| MDYRSYPHEYG [RBM10_Y44_R46H] | 0.647 | 0.494 | 0.724 | 0.632 | 0.561 | 0.854 | 0.419 | 0.484 | 0.404 | 0.551 | 0.518 | 0.832 | 0.486 | 0.602 | 0.682 | 0.542 |
| DNEALYDICFR [TUBB2B_Y208] | 0.77 | 0.469 | 0.627 | 0.917 | 3.58 | 1.6 | 6.65 | 6.43 | 10.2 | 4.88 | 5.86 | 3.21 | 7.51 | 0.618 | 1.38 | 4.63 |
| YISLIYTNYEV [GSTP1_Y109_A114V] | 1.18 | 1.16 | 1.5 | 4.26 | 2.16 | 1.55 | 4.07 | 2.59 | 5.32 | 1.83 | 4.53 | 1.82 | 3.93 | 4.89 | 1.54 | 2 |
| IGGHAYGDQYR [IDH1_Y135_R132G] | 0.776 | 0.416 | 0.548 | 0.382 | 0.386 | 0.59 | 0.382 | 0.428 | 0.448 | 0.368 | 0.36 | 0.52 | 0.357 | 0.364 | 0.431 | 0.405 |
| SVTCTYSRALN [TP53_Y126_P128R] | 0.62 | 0.46 | 0.596 | 0.796 | 0.916 | 1.28 | 0.429 | 0.523 | 0.5 | 0.602 | 0.494 | 1.09 | 0.401 | 0.461 | 1.07 | 0.626 |
| VAVTKYCKEEL [ATP7B_Y1078] | 0.813 | 0.53 | 0.729 | 0.776 | 0.651 | 0.917 | 0.455 | 0.593 | 0.494 | 0.547 | 0.477 | 0.877 | 0.37 | 0.498 | 0.844 | 0.508 |
| QRPGPYDRPGA [HNRNPH2_Y210] | 0.972 | 1.05 | 1.03 | 0.48 | 0.496 | 0.812 | 0.322 | 0.705 | 0.281 | 0.466 | 0.386 | 0.556 | 0.426 | 0.43 | 0.439 | 0.453 |
| NDLMEYPKQHG [ASS1_Y163_A164P] | 0.887 | 0.538 | 0.571 | 0.48 | 0.697 | 0.855 | 0.503 | 0.502 | 0.377 | 0.48 | 0.447 | 0.738 | 0.45 | 0.506 | 0.765 | 0.46 |
| SSSPTYLDLPF [GLI3_Y168_P169L] | 0.786 | 0.464 | 0.57 | 3.79 | 0.681 | 0.667 | 0.638 | 2.25 | 0.621 | 2.73 | 0.647 | 0.659 | 1.12 | 5.82 | 0.592 | 8.94 |
| AEDKPYAELWM [MPI_Y46] | 0.778 | 2.15 | 1.21 | 1.34 | 0.854 | 1.34 | 2.27 | 1.44 | 10.8 | 0.729 | 3.47 | 1.38 | 1.4 | 1.45 | 1.09 | 0.868 |

Reference: the supplement of paper PMC10065799, “High-throughput profiling of sequence recognition by tyrosine kinases and SH2 domains using bacterial peptide display” (eLife, 2023)
